Reference: paper PMC8622166 (2021)
Read-outs that look alike come from different tables or passages of the source.

What was measured:
[1] = biological target: T1, non-isoprenylated RAC1 full-length (RAC1^FL) (human, UniProt P63000 1-192); test: stopped-flow
[2] = biological target: T1, non-isoprenylated RAC1 full-length …; test: FP; mdGDP-bound RAC1
[3] = biological target: T1, non-isoprenylated RAC1 full-length …; test: kinetic, koff/kon
[4] = biological target: T1, non-isoprenylated RAC1 full-length …; test: FP
[5] = biological target: T1, non-isoprenylated RAC1 full-length …; test: stopped-flow; remark: listed apart in the source
[6] = biological target: T1, non-isoprenylated RAC1 full-length …; test: kinetic, koff/kon; remark: listed apart in the source

| koff [1] [s⁻¹] | Kd [2] [µM] | Kd [3] [µM] | Kd [4] [µM] | koff [5] [s⁻¹] | Kd [6] [µM] | Binder |
| --- | --- | --- | --- | --- | --- | --- |
| 0.59 | 29 | 21.7 | – | – | – | GDI1^ΔC6 (domain or fragment) MAEQEPTAEQLAQIAAENEEDEHSVNYKPPAQKSIQEIQELDKDDESLRKYKEALLGRVAVSADPNVPNVVVTGLTLVCSSAPGPLELDLTGDLESFKKQSFVLKEGVEYRIKISFRVNREIVSGMKYIQHTYRKGVKIDKTDYMVGSYGPRAEEYEFLTPVEEAPKGMLARGSYSIKSRFTDDDKTDHLSWEWNLTI |
| – | 14 | – | – | – | – | GDI1^E121K (natural protein) MAEQEPTAEQLAQIAAENEEDEHSVNYKPPAQKSIQEIQELDKDDESLRKYKEALLGRVAVSADPNVPNVVVTGLTLVCSSAPGPLELDLTGDLESFKKQSFVLKEGVEYRIKISFRVNRKIVSGMKYIQHTYRKGVKIDKTDYMVGSYGPRAEEYEFLTPVEEAPKGMLARGSYSIKSRFTDDDKTDHLSWEWNLTIKKDWKD |
| – | 117 | – | – | – | – | GDI1^2E>2K (E163K and E164K) (natural protein) MAEQEPTAEQLAQIAAENEEDEHSVNYKPPAQKSIQEIQELDKDDESLRKYKEALLGRVAVSADPNVPNVVVTGLTLVCSSAPGPLELDLTGDLESFKKQSFVLKEGVEYRIKISFRVNREIVSGMKYIQHTYRKGVKIDKTDYMVGSYGPRAEEYEFLTPVKKAPKGMLARGSYSIKSRFTDDDKTDHLSWEWNLTIKKDWKD |
| – | 1.2 | – | 0.96 | 0.34 | 1.03 | GDI1 (RHOGDI1), wild type (natural protein) MAEQEPTAEQLAQIAAENEEDEHSVNYKPPAQKSIQEIQELDKDDESLRKYKEALLGRVAVSADPNVPNVVVTGLTLVCSSAPGPLELDLTGDLESFKKQSFVLKEGVEYRIKISFRVNREIVSGMKYIQHTYRKGVKIDKTDYMVGSYGPRAEEYEFLTPVEEAPKGMLARGSYSIKSRFTDDDKTDHLSWEWNLTIKKDWKD |
| – | 174 | – | – | – | – | GDI1^ΔN25 (domain or fragment) NYKPPAQKSIQEIQELDKDDESLRKYKEALLGRVAVSADPNVPNVVVTGLTLVCSSAPGPLELDLTGDLESFKKQSFVLKEGVEYRIKISFRVNREIVSGMKYIQHTYRKGVKIDKTDYMVGSYGPRAEEYEFLTPVEEAPKGMLARGSYSIKSRFTDDDKTDHLSWEWNLTIKKDWKD |
| 0.54 | 102 | 16.8 | – | – | – | GDI1^ΔN15 (domain or fragment) AENEEDEHSVNYKPPAQKSIQEIQELDKDDESLRKYKEALLGRVAVSADPNVPNVVVTGLTLVCSSAPGPLELDLTGDLESFKKQSFVLKEGVEYRIKISFRVNREIVSGMKYIQHTYRKGVKIDKTDYMVGSYGPRAEEYEFLTPVEEAPKGMLARGSYSIKSRFTDDDKTDHLSWEWNLTIKKDWKD |
